Data on 17 molecules can be found in paper PMC10720262 (Cell Reports, 2023).

The assay deals with recombinant full-length PfCSP (Plasmodium falciparum circumsporozoite protein, strain NF54) (Plasmodium falciparum NF54, UniProt P19597).
Sequence of recombinant full-length PfCSP (Plasmodium falciparum circumsporozoite protein, strain NF54) (P19597 20-375): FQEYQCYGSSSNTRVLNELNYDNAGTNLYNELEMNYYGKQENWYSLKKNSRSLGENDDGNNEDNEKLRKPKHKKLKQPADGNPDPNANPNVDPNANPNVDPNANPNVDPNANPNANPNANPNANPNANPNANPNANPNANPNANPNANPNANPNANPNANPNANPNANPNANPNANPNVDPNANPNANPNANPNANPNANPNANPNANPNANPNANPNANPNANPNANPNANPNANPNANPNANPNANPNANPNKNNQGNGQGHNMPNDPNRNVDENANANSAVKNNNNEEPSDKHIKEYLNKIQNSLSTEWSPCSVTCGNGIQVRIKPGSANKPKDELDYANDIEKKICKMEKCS

B1: CL-440422 (antibody, V domains shown)
VH: QVQLVESGGGVVQPGRSLRLSCAASGFTFSNFGMHWVRQTPDRGLEWVAIIWFDGSNTFYTDSVKGRFTISRDNYMNTLYLQMNSLRAEDTAVYYCARSFYSDSAGSLFDYWGQGTLVTVSS
VL: DIQMTQSPSTLSASVGDRVTITCRASQNINNWVAWYQQKPGKAPKLLIYKASDLETGVPSRFSGSGSGTEFTLTISGLQPDDFATFYCLQNNHYWTFGQGTKVEIK
As to B1, the binding result is recorded as “binds”.

B2: CL-437492 (antibody, V domains shown)
VH: QEQLVESGGGVVQPGNSLRLSCVASGFTFSNHGMHWVRQAPGKGLEWVAIIWYDGSQKFYSDSVKGRFTISRDNSKNTLYLQMNSLRAEDTAIYYCARVDWSGNDWGWFDPWGQGTLVTVSS
VL: EIVLTQSPDTLSLSPGERATLSCRASQTLSSRHLAWYQQKPGQAPRLLIYGASSRATGIPDRFSGSGSGTDFTLTINRLEPEDFAVFYCQQYGRLWTFGQGTKVEIK
B2: the binding result is listed as “binds”.

B3: CL-444387 (antibody, V domains shown)
VH: QVHLVESGGGVVQPGRSLRLSCVASGFSFSSYGMHWVRQAPGKGLEWVAIIWYDGSYTYYADSVKGRFTISRDNSKNTLYLQMNSLRVEDTAVYYCAKVGLSYNGRTGAFDIWGQGTMVTVSS
VL: not shown
Take B3: the binding result was “binds”.

B4: CL-442127 (antibody, V domains shown)
VH: QAQLVESGGGVVQPGKSLRLSCAASRFTFRNYGMHWVRQGPVKGLEWVALIWHDGSNKFYSDSVRDRFTISRDNSKNKLFLQMNSLTADDTALYYCVRSNYDGSGTYGWFGPWGQGTLVTVSS
VL: EIVLTQSPGTLSLSPGERATLSCRASQSVISNYLAWYQQKPGQAPRLLIYGASTRDIGIPDRFSGSGSGTDFTLTISRLEPEDFAVYFCHQYGSSFTFGPGTKVDFK
With B4, the binding result is “binds”.

B5: CL-437092 (antibody, V domains shown)
VH: QVQLVESGGGVVQPGGSLRLSCAASGFTLSSFGIHWVRQAPGKGLEWVALIWHDGSMKYYADSVKGRFTISRDNSKNTVDIQMNSLRVEDTAVYYCARPGIGSPGDHYTMDVWGHGTTVTVSS
VL: not shown
Turning to B5, the binding result is “binds”.

B6: CL-437716 (antibody, V domains shown)
VH: QVHLVESGGGVVQPGRSLRLSCAASGFIFSNSGMHWVRQVPGKGLEWVAIIWYDGSNKYYADSVKGRFTISRDNSKNTLYLQMNSLRAEDTAVYYCVRAYSSSSSYYYGMDVWGQGTTVTVSS
VL: not shown
Turning to B6, the binding result is given as “binds”.

B7: CL-437899 (antibody, V domains shown)
VH: QEQLVESGGGVVQPGRSLRLSCEVSGFTFSNHGLHWVRQAPGKGLEWVAIIWYDGSNKFYAESVKGRFTISRDNSKNRMYLEMNSLRVEDSAVYYCVRAYSRSSSDYKYGMDVWGQGTTVTVSS
VL: DIQMTQSPSTLSASVGDRVIITCRASQSISSWLAWYQQRPGKAPELLIYKASSLETGVPSRFSGSGSGTEFTLTISSLQPDDFATYFCQQYSSYWTFGQGTKVEIK
With B7, the binding result is “binds”.

B8: CL-438096 (antibody, V domains shown)
VH: QVVLVESGGGVVQPGRSLRLSCEASGFIFSSRGMHWVRQTPGKGLEWVAIIWYDGSNKFYADSVKGRFTISRDNSKNTLYLQMNSLRAEDTAVYYCARSYRTSLDKKYGMDVWGQGTTVTVSS
VL: DIQMTQSPSTLSASVGDRVTITCRASQSISSWLAWYQQKPGKAPKLLIYKASSLESGVPSRFSGSGSGTEFTLTISSLHPDDFATYFCQQYNSYWTFGQGTKVEIK
Turning to B8, the binding result is on record as “binds”.

B9: CL-441816 (antibody, V domains shown)
VH: QEQLVESGGGVVQPGRSLRLSCATSGFTFSTYGLHWVRQSPGKGLEWVTVIWYDGSNKFYADSVKGRFTISRDNSKNTLYLQMNSLRAEDTAVYYCARALYSSRWYGAFDIWGQGTMVTVSS
VL: QSVLTQPPSVSGAPGQRVTISCTGSSSNIGAGYDVHWYQLLPGTAPKLLIYGNSNRPSGVPDRFSGSKSGTSASLAITGLQAEDEADYYCQSYIRSLSGSVFGGGTKLTVL
As for B9, the binding result is on record as “binds”.

B10: CL-440582 (antibody, V domains shown)
VH: QVQLVESGGGVVQPGRSLRLSCAASGFTLNNYGIHWVRQAPGKGLEWLSLIWYDGSNKFYADSVKGRFTVSRDNSQNTVSLHMSSLSVDDTAVYYCARPGIGVPGDKYTMDVWGQGTTVTVSS
VL: DIQMTQSPSTLSASVGDRVTITCRASQTISAWLAWYQQKLGKAPKILIYKASILESGVPSRFSGSGSGTEFTLTINSLQPDDFATYYCQQYNYDWTFGQGTKVEIN
In the case of B10, the binding result is “binds”.

B11: CL-437762 (antibody, V domains shown)
VH: QVQLVESGGGVVQPGRSLRLSCAASGFTFSNYGMYWVRQAPGKGLEWVAVIWYDGSNKYYADSVKGRFTISRDNSKNTLYLQMNSLRAEDTAFYYCARPQYSGSGSYFDYWGQGTLVTVSS
VL: not shown
Consider B11, for which the binding result is “binds”.

B12: CL-441734 (antibody, V domains shown)
VH: QVQLVESGGGVVQPGRSLRLSCAASGFTFSSHGMHWVRQAPVKGLEWVAVIWYDGSNKYYADSVKGRFTISRDNSKNTLYLQMNSLRAEDTAVYYCARVEYSRSSGDYYYYGLDVWGQGTTVTVSS
VL: EIVMTQSPATLSVSPGERATLSCRASQSVSSNLAWYQQKPGQAPRLLIYGASTRATGIPARFSGSGSGTEFTLTISSLQSEDFAVYYCQQYDNWWTFGQGTKVEIK
Take B12: the binding result is reported as “binds”.

B13: CL-437907 (antibody, V domains shown)
VH: QVQLVESGGGVVQPGRSLRLSCVASGFTFSHSGMHWVRQTPGKGLEWVAIIWHDGSIKYYVESVKGRFTISRDNSKNTLYLEMRSLRAEDTAVYFCVRSYSESLYDKYGMDVWGQGTTVTVSS
VL: DIQMTQSPSTLSASVGDRVTISCRASQSISSWLAWFQQKPGKAPKLLIYAASSLQSGVPSRFSGSGSGTDFTLTISSLQPDDFATYYCQQFNSYWTFGQGTKVEVK
Turning to B13, the binding result was “binds”.

B14: CL-438145 (antibody, V domains shown)
VH: QVQLVESGGGVVQPGRSLRLSCAASGFTFSDYGMHWVRQAPGKGLEWVAIIWYDGSNKYYAASVKDRFIISRDNFKNTLYLQMNSLRAEDTAVYYCARVNFDDSGSWDYWGQGTLATVSS
VL: DIQMTQSPSTLSASVGDRVTITCRASQNINTRLAWYQQKVGTAPKLLIYTASSLESGVPSRFSGSGSGTEFTLTISSLQPDDFATYYCQQYYRYWTFGQGTKVEIK
Regarding B14, the binding result is reported as “binds”.

B15: CL-440324 (antibody, V domains shown)
VH: QVQLVESGGGVVQPGRSLRLSCAASGFTFRNHGLHWVRQAPGKGLEWVAIIWFDGSNKFYADSVKGRFTISRDNSKNTLYLQMNSLRAEDTAIYYCARVSSHDNGDYGDFDYWGQGTLVTVSS
VL: DIQMTQSPSTLSASVGDRVTITCRASQNISNWLAWYQQKPGKAPKLLIYKASSLESGVPSRFSGSGSGTEFTLTISGLQPDDFATYYCQQYKTYWTFGQGTQVEIK
Take B15: the binding result was “binds”.

B16: CL-437862 (antibody, V domains shown)
VH: QVQLVESGGGVVQPGRSLRLSCAASGFTFSNSGMHWVRQVPGKGLEWVAIIWYDGGNKYYADSVKGRFTISRDNSKNTLYLQMNSLRAEDTAVYYCARAYYDILTSYDKDCCYGMDVWGQGTTVTVSS
VL: not shown
For the molecule B16, the binding result was “binds”.

B17: CL-437934 (antibody, V domains shown)
VH: QVQLVASGGAVVQPGRSLRLSCAASGFTFSNSGMHWVRQAPGQGLEWVAIIWYDGGNKYYADSVKGRFTISRDNSKNTLYLQMNSLRAEDTAVYYCVRAYYEILTTYNKDCCYGMDVWGQGTTVTVSS
VL: not shown
As to B17, the binding result was “binds”.
